Assays:
[1] = target: T1, recombinant AIMP1/p43 (ARS-interacting multifunctional protein 1) (human, UniProt Q12904 1-312, limits assumed); assay: SPR (ProteOn XPR36), AIMP1/p43 amine-coupled on GLC chip, scFv 200-25 nM as analyte, 25°C
T1 construct: Purified recombinant antigen used in SPR, on Luminex beads and as the ELISA standard; It calls the target human AIMP1/p43 in the summary and claims; also called AIMP1/p43 항원; 재조합 AIMP1/p43 표준물질
T1 sequence (looked up): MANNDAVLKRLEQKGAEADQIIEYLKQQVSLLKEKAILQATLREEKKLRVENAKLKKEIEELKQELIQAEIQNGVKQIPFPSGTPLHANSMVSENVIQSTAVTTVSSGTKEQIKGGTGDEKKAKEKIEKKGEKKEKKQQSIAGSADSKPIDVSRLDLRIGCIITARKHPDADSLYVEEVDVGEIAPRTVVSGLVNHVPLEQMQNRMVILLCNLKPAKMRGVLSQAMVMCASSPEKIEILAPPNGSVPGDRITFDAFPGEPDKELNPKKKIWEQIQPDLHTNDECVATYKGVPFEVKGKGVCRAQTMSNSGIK

[2] = target: T2, AIMP1/p43 natively expressed in human cells (HeLa cell lysate) (human, UniProt Q12904 2-312, limits assumed); assay: western blot on HeLa cell lysate, periplasmic scFv, anti-HA-HRP detection
T2 construct: Endogenous protein, denatured on a western blot; also called human 세포에서 원래 발현된 AIMP1/p43
T2 sequence (looked up): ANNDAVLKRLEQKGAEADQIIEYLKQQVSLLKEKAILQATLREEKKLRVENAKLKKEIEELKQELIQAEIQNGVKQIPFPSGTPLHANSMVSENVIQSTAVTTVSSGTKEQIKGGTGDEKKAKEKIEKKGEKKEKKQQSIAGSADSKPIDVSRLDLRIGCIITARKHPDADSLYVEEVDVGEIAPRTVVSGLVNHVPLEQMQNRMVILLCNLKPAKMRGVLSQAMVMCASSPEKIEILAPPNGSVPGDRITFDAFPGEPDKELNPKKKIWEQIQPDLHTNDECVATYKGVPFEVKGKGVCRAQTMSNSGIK

[3] = target: T3, Asparaginyl-tRNA synthetase (NRS) (UniProt O43776 1-548, limits assumed); assay: Luminex multiplex bead assay, antigen-coupled beads, anti-HA-biotin and SA-PE detection
T3 construct: Recombinant antigen, purity above 90%, coupled to a Luminex bead; also called 아스파라기닐딜-tRNA 합성효소
T3 sequence (looked up): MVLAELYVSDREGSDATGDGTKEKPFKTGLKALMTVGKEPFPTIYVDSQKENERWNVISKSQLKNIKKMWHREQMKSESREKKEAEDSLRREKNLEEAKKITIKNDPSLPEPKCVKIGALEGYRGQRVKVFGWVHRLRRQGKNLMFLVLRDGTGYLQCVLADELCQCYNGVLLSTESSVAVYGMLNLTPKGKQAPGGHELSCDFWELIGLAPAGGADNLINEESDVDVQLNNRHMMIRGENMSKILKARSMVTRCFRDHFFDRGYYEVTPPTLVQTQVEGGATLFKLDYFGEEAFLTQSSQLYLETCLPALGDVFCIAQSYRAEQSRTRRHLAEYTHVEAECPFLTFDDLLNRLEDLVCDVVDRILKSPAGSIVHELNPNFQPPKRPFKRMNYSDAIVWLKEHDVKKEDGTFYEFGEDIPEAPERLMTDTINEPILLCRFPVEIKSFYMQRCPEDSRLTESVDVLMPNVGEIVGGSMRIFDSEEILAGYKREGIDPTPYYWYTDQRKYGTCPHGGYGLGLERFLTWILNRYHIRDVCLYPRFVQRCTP

[4] = target: T4, Tryptophanyl-tRNA synthetase (WRS) (UniProt P23381 1-471, limits assumed); assay: as above
T4 construct: Recombinant antigen, purity above 90%, coupled to a Luminex bead; also called 트립토파닐-tRNA 합성효소
T4 sequence (looked up): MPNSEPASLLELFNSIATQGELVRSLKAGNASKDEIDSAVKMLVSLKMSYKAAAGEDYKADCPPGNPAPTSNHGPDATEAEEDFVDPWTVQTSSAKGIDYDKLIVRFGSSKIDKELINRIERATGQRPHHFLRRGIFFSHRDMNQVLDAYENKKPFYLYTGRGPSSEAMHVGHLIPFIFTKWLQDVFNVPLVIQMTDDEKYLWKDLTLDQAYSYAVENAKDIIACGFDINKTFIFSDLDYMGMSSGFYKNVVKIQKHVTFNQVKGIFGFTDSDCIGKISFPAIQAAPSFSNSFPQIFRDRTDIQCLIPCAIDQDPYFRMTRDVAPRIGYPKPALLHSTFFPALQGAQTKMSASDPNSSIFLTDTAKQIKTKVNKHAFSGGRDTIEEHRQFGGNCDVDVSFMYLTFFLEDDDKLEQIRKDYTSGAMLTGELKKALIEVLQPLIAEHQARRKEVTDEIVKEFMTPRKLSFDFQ

[5] = target: T5, Seryl-tRNA synthetase (SRS) (UniProt P49591 1-514, limits assumed); assay: as above
T5 construct: Recombinant antigen, purity above 90%, coupled to a Luminex bead; also called 세릴-tRNA 합성효소

[6] = target: T6, Histidyl-tRNA synthetase (HRS) (UniProt P12081 1-509, limits assumed); assay: as above
T6 construct: Recombinant antigen, purity above 90%, coupled to a Luminex bead; also called 히스티딜-tRNA 합성효소
T6 sequence (looked up): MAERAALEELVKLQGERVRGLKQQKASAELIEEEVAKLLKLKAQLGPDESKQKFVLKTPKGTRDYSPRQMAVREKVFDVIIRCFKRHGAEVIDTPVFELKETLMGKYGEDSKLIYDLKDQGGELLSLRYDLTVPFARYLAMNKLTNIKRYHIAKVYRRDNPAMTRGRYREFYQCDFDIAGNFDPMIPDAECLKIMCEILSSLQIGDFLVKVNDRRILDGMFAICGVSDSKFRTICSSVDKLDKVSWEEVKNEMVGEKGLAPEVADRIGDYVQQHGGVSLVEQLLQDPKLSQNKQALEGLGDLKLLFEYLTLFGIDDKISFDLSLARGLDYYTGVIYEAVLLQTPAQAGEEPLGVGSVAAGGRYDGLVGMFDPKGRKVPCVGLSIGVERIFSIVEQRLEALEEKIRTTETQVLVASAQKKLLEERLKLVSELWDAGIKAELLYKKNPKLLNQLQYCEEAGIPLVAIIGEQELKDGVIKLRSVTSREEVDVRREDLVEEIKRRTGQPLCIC

[7] = target: T7, Tyrosyl-tRNA synthetase (YRS) (UniProt P54577 1-528, limits assumed); assay: as above
T7 construct: Recombinant antigen, purity above 90%, coupled to a Luminex bead; also called 타이로실-tRNA 합성효소
T7 sequence (looked up): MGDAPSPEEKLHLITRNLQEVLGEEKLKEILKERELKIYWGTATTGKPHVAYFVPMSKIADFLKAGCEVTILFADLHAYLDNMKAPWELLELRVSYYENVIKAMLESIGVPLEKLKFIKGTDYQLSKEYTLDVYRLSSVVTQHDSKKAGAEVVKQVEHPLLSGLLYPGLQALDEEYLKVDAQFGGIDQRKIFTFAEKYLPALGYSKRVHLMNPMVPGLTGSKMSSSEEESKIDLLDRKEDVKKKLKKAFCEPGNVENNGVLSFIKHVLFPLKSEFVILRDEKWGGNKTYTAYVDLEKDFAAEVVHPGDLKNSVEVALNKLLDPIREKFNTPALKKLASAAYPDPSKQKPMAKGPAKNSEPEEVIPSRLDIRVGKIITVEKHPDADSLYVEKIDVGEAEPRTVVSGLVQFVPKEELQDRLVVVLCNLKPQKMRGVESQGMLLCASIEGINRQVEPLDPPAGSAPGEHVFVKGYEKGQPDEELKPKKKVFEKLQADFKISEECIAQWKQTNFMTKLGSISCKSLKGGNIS

[8] = target: T8, Glycyl-tRNA synthetase (GRS) (UniProt P41250 55-739, limits assumed); assay: as above
T8 construct: Recombinant antigen, purity above 90%, coupled to a Luminex bead; also called 글리실-tRNA 합성효소
T8 sequence (looked up): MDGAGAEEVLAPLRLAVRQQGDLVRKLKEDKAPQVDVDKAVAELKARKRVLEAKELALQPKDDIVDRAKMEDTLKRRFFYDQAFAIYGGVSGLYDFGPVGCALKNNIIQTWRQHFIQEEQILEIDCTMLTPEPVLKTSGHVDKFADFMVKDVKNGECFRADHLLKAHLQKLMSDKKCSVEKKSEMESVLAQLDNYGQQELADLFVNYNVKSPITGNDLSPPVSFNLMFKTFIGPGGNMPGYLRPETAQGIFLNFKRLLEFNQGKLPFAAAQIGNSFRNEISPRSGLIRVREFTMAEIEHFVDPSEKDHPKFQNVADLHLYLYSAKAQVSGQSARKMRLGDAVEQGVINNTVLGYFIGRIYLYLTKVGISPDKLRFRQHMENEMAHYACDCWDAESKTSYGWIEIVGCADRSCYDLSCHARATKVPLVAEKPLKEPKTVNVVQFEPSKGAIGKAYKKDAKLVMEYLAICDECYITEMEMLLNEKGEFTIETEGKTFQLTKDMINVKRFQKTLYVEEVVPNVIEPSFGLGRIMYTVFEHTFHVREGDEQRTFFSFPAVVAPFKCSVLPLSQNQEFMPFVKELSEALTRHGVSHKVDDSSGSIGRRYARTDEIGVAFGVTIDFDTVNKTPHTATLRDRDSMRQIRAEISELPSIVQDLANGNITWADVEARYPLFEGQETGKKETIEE

[9] = target: T9, Lysyl-tRNA synthetase (KRS) (UniProt Q15046 1-597, limits assumed); assay: as above
T9 construct: Recombinant antigen, purity above 90%, coupled to a Luminex bead; also called 리실-tRNA 합성효소
T9 sequence (Q15046 whole entry): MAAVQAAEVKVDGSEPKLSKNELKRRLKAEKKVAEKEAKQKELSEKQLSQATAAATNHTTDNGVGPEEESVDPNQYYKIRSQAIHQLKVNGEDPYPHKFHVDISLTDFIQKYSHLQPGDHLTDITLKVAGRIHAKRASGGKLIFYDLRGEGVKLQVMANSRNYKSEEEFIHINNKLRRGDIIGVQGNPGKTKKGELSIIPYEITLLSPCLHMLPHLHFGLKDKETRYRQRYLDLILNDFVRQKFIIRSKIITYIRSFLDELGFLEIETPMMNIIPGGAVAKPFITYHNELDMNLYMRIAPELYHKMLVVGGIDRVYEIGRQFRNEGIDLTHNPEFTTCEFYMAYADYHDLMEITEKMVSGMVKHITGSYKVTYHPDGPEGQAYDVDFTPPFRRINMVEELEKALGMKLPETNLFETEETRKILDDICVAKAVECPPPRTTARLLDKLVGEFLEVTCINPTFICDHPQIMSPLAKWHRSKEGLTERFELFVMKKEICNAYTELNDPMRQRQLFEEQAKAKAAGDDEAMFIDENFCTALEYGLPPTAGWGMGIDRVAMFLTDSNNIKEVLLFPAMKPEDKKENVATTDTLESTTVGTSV

T5 sequence (P49591 whole entry): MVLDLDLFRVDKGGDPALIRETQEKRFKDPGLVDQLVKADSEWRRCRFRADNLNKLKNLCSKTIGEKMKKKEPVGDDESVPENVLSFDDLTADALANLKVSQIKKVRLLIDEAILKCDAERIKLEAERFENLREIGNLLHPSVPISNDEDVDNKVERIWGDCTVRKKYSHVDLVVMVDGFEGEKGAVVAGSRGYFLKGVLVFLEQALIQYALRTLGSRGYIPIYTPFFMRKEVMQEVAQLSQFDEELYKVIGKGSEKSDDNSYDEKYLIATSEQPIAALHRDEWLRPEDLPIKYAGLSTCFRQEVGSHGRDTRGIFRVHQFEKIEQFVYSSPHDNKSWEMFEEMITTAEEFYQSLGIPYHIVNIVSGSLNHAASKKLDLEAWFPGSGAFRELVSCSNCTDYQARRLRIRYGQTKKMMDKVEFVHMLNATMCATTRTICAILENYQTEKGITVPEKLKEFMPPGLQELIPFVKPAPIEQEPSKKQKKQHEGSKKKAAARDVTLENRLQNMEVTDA

B1: anti-AIMP1/p43 scFv Biocon-AM1-1 (scFv)
scFv: EVQLLEFLGEGLVQPGGSLRLSCAASGFTFSSYDMSWVRQAPGKGLEWVSVISSDGGSTYYADSVRGRFTISRDNSKNTLYLQMNSLRAEDTAVYYCAKDVMKTGTLVFDYWGQGTLVTVSSGGGGSGGGGSGGGGSQSVLTQPPSASGTPGQRVTISCSGSSSNIGSNDVSWYQQLPGTAPKLLIYADSKRPSGVPDRFSGSKSGTSASLAISGLRSEDEADYYCGSWDDSLSGYVFGGGTKLTVL
notes: Expressed from pComb3X in the E. coli periplasm; also called antibody i)
B1: binds [1]; binds [2]; no binding [3]. B1: no binding [4]; no binding [5]; no binding [6]. B1: no binding [7]; no binding [8]; no binding [9].

B2: anti-AIMP1/p43 scFv Biocon-AM1-2 (scFv)
scFv: EVQLLESGGGLVQPGGSLRLSCAASGFTFSNYDMSWVRQAPGKGLEWVSSIYPNGSSKYYADSVKGRFTISRDNSKNTLYLQMNSLRAEDTAVYYCARDVLLCISMRCYYADGMDVWGQGTLVTVSSGGGGSGGGGSGGGGSQSVLTQPPSASGTPGQRVTISCSGSSSNIGNNAVNWYQQLPGTAPKLLIYANSHRPSGVPDRFSGSQSGTSASLAISGLRSEDEADYYCGSWDSSLNGYVFGGGTKLTVL
notes: Expressed from pComb3X in the E. coli periplasm; also called antibody ii)
B2: binds [1]; binds [2]; no binding [3]. B2: no binding [4]; no binding [5]; no binding [6]. B2: no binding [7]; no binding [8]; no binding [9].
